The source of these data is US20240376185A1 (SMIVET B V, published 2024).

Read-outs that look alike come from different tables or passages of the source.

Test [1] has as its target T1, tetanus neurotoxin (TeNT), authentic tetanus holotoxin (Clostridium tetani, UniProt P04958 2-1315).
The target in test [2] is T1, tetanus neurotoxin (TeNT), authentic …. The test can be described thus: BLI (Octet Red96); avidity (bivalent for TeNT); format for this SDA not told. For orientation: In BLI a coated tip is dipped into the sample, and binding shifts an interference pattern.
Target sequence in this assay (P04958 2-457 limits assumed, chain 1 of 2): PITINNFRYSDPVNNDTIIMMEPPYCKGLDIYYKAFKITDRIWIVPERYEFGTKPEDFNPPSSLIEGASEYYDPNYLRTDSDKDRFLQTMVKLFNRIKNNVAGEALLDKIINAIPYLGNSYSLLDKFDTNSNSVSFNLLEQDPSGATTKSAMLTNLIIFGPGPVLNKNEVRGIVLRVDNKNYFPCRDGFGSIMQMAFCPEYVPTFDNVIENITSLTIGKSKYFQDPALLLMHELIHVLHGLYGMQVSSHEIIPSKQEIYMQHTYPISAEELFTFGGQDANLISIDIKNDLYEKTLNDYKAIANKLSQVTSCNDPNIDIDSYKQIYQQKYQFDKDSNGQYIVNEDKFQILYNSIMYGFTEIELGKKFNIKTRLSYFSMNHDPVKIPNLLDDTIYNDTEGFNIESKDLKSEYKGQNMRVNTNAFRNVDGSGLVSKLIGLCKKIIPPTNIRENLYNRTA
Target sequence in this assay (P04958 458-1315 limits assumed, chain 2 of 2): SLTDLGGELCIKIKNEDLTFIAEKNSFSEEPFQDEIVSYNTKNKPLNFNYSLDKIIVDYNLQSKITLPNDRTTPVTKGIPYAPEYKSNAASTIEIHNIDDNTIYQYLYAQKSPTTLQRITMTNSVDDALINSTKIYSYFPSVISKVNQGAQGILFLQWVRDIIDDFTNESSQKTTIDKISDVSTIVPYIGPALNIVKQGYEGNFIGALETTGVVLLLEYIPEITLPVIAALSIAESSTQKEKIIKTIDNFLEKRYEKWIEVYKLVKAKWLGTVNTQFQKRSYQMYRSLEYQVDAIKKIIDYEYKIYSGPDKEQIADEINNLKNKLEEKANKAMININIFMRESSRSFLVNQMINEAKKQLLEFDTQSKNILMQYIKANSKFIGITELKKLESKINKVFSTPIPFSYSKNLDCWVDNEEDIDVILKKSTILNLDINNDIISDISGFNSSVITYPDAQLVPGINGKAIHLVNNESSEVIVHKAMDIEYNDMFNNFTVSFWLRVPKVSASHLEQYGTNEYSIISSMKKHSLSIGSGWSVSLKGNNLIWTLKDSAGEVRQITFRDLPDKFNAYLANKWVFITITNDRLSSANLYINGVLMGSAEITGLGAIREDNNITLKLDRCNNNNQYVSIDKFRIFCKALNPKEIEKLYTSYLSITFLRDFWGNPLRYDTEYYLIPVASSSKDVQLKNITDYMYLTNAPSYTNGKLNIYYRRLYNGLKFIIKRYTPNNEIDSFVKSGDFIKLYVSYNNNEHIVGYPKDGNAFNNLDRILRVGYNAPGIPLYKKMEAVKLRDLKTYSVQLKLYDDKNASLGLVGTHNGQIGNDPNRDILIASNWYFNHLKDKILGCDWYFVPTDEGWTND
The target is the same in test [3]. Nature of the test: BLI (Octet Red96); estimate of the footnote with kdis set to 1.0E-07; avidity.
Target sequence in this assay (P04958 2-457 limits assumed, chain 1 of 2): as the sequence (P04958 2-457 limits assumed, chain 1 of 2) above
Target sequence in this assay (P04958 458-1315 limits assumed, chain 2 of 2): as the sequence (P04958 458-1315 limits assumed, chain 2 of 2) above
The target is the same in test [4]. Nature of the test: cell-based or functional assay.
Target sequence in this assay (P04958 2-457 limits assumed): as the sequence (P04958 2-457 limits assumed, chain 1 of 2) above
The target is the same in test [5]. Nature of the test: BLI (Octet Red96): biotinylated TeNT on SA sensor, SDA as analyte.
Target sequence in this assay (P04958 2-457 limits assumed, chain 1 of 2): as above
Target sequence in this assay (P04958 458-1315 limits assumed, chain 2 of 2): as the sequence (P04958 458-1315 limits assumed, chain 2 of 2) above
Test [6] shares this target. The test can be described thus: BLI (Octet Red96); estimate of the footnote with kdis set to 1.0E-07.
Target sequence in this assay (P04958 2-457 limits assumed): as the sequence (P04958 2-457 limits assumed, chain 1 of 2) above
The target of test [7] is T2, tetanus neurotoxin (TeNT), authentic tetanus holotoxin (Clostridium tetani, UniProt P04958 2-1315). Nature of the test: ELISA, directly coated TeNT. (In an ELISA, binding on a coated surface is turned into a signal by an enzyme label.)
Target sequence in this assay (P04958 2-457 limits assumed, chain 1 of 2): as above
Target sequence in this assay (P04958 458-1315 limits assumed, chain 2 of 2): as the sequence (P04958 458-1315 limits assumed, chain 2 of 2) above
Test [8] concerns the target T3, recombinant tetanus toxin fragment C (rTTC) (Clostridium tetani, UniProt P04958 865-1315).
T3 sequence: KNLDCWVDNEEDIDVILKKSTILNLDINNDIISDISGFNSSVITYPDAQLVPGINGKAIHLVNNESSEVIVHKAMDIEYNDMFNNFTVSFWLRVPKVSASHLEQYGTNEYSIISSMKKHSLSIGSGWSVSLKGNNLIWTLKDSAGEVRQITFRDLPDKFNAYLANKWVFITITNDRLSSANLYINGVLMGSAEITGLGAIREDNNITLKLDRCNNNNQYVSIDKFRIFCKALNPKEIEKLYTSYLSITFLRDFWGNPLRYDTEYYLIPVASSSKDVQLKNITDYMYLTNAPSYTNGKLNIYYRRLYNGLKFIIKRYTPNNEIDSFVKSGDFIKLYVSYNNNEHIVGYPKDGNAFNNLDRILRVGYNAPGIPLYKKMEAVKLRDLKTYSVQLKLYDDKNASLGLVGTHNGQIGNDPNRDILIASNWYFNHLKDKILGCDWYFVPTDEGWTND
The test can be described thus: ELISA, directly coated rTTC.

The target in test [9] is T2, tetanus neurotoxin (TeNT), authentic …. Nature of the test: ELISA, TeNT captured with coated mAb 6E7.
Target sequence in this assay (P04958 2-457 limits assumed, chain 1 of 2): as the sequence (P04958 2-457 limits assumed, chain 1 of 2) above
Target sequence in this assay (P04958 458-1315 limits assumed, chain 2 of 2): as the sequence (P04958 458-1315 limits assumed, chain 2 of 2) above
The target of test [10] is T3, recombinant tetanus toxin fragment C …. Nature of the test: ELISA, rTTC captured with coated mAb 6E7.
For test [11], the target named is T2, tetanus neurotoxin (TeNT), authentic …. The test can be described thus: GT1b-TeNT inhibition ELISA, EC at A450 0.59.
Target sequence in this assay (P04958 2-457 limits assumed, chain 1 of 2): as the sequence (P04958 2-457 limits assumed, chain 1 of 2) above
Target sequence in this assay (P04958 458-1315 limits assumed, chain 2 of 2): as the sequence (P04958 458-1315 limits assumed, chain 2 of 2) above
The target is the same in test [12]. Nature of the test: GT1b-TeNT inhibition ELISA, unlabelled binder.
Test [13] shares this target. The test can be described thus: ELISA, directly coated TeNT, unlabelled binder.
The target of test [14] is T3, recombinant tetanus toxin fragment C …. The test can be described thus: ELISA, directly coated rTTC, unlabelled binder.
The target in test [15] is T2, tetanus neurotoxin (TeNT), authentic …. The test can be described thus: ELISA, directly coated TeNT, biotinylated binder.
For test [16] the target is unchanged. Nature of the test: ELISA, TeNT captured with cAb-TT2, unlabelled binder.
For test [17] the target is unchanged. The test can be described thus: ELISA, TeNT captured with cAb-TT2, biotinylated binder.
The target is the same in test [18]. Nature of the test: competition ELISA on TeNT, binder biotinylated; competitor SVT02L.
Test [19] has the same target. Nature of the test: competition ELISA on TeNT, binder biotinylated; competitor SVT03L.
For test [20] the target is unchanged. The test can be described thus: competition ELISA on TeNT, binder biotinylated; competitor SVT06L.
For test [21] the target is unchanged. Nature of the test: competition ELISA on TeNT, binder biotinylated; competitor SVT08L.
Test [22] shares this target. The test can be described thus: competition ELISA on TeNT, binder biotinylated; competitor SVT13L.
For test [23] the target is unchanged. The test can be described thus: competition ELISA on TeNT, binder biotinylated; competitor SVT15L.
The target is the same in test [24]. Nature of the test: competition ELISA on TeNT, binder biotinylated; competitor SVT16L.
For test [25] the target is unchanged. Nature of the test: competition ELISA on TeNT, binder biotinylated; competitor SVT22L.
The target is the same in test [26]. Nature of the test: competition ELISA on TeNT, binder biotinylated; competitor SVT34L.
Test [27] has the same target. Nature of the test: competition ELISA on TeNT, binder biotinylated; competitor mAb 6E7.
For test [28] the target is unchanged. Nature of the test: competition ELISA on TeNT, binder biotinylated; competitor mAb 14F5.
Test [29] shares this target. Nature of the test: competition ELISA on TeNT, binder biotinylated; competitor mAb 6F57.
Test [30] has the same target. The test can be described thus: competition ELISA on TeNT, binder biotinylated; competitor mAb 11n185.
Test [31] shares this target. Nature of the test: competition ELISA on TeNT, binder biotinylated; competitor SVT15L-3FW4M.

B1: SVT06-GS3-SVT15-3FW4M-GS2-SVG06M4-H6 (bispecific antibody)
chain: QVQLQESGGGSVQAGGSLRLSCTASELSYDDYTIAWFRRAAGEGRVEDGEGVASITKSYDRAYDNKINYGHSVKGRFTISRDNAKNTVYLQMTDLLPSDTAVYYCALDITPPGGVGASLTEGFLFDYWGQGTQVTVSSGGGGSGGGGSGGGGSQVQLQESGGGLVQTGGSLRLSCRASGRAFANYHFGWFRQAPGKDREFVASISWKGGSTYYANFALGRFTSSVDRAESSVYLQMSGLTPEDTATYYCAAHDGGDWNYHTGMDYWGQGTQVTVSSGGGGSGGGSEVQLVESGGALVQPGGSLRLSCAASGFPFSAYDMTWVRQAPGQGLEWVSTIHKSGGITTYADSVKGRFTISRDNAKNTLYLQMNNLESEDTAVYYCAKALRAHNSDYVGRNALGSWGQGTQVTVSSHHHHHH
By koff is commonly meant the first-order rate constant of dissociation. Lower therefore signals slow dissociation. In general, kon refers to the rate constant with which the complex forms. A lower kon goes with slower complex formation. In test [1], B1 gave a Kd of under 1 pM. Also, in test [2], the off-rate (koff) is under 1e-07 s⁻¹ and the association rate constant (kon) is 69100 M⁻¹ s⁻¹. Also, in [3], the Kd is about 1.45 pM.

B2: SVT03L (VHH)
VHH: QVQLQQSGGGSVQTGDSLTLSCTASGGSLNSYFVGWFRQSGGKEREFVSVIARTGRSTSYADSVKGRFTISRDNAANTVFLTMNNLRPDDTAIYYCAAVGRPGVLHLTQSYDYWGQGTQVTVSS
In [1], B2 returned a Kd of under 1 pM. Further, in [4], the Endpoint dilution factor is under 1 and the “SDA concentration providing full protection” value is over 1000 nM. In test [5], this molecule displayed an off-rate constant (koff) of under 1e-07 s⁻¹ and a kon of 5.65e+06 M⁻¹ s⁻¹. Moreover, the Kd in [6] is about 0.0177 pM.

B3: SVT03L (VHH)
VHH: B2 VHH
In the case of B3, the “absorbance at 450 nm” value in [7] came out at 0.331; in test [9], 1.32; in [10] it was 0.061. Besides, the binding result in [8] is listed as “no binding (tested: A450 above 0.2 counts as binding)”. Also, the “concentration giving A450 of 0.59” value in test [11] was over 1 µg/mL. Also, in test [12], the “minimal absorbance at 450 nm” value turned out to be 0.903. In addition, the “EC resulting in A450 0.2” value was over 1000 ng/mL in test [13] and 2.8 ng/mL in test [17]. For the same molecule, the “maximal absorbance at 450 nm” value in test [13] was 0.104; in [14], 0.053; in test [15], 0.233; in test [16], 0.304; in test [17], 0.493. Further, the “EC resulting in A450 0.4” value in [15] was over 1000 ng/mL. Further, the “EC resulting in A450 0.15” value in test [16] was 1.9 ng/mL. Moreover, the “% inhibition of binding” value in [18] was determined as 10%; in test [19], 97%; in test [20] it was 10%; in test [21] it was 10%; in [22], 23%; in test [23] it was 12%. Further, the “% inhibition of binding” value in [24] is 18%; in test [25] it was 10%; in test [26], -4%; in test [27], -12%; in test [28], -8%; in test [29] it was 17%. Besides, the results for the “% inhibition of binding” value in [30] and in [31] were -26% and 10%, respectively.

B4: SVT02L (VHH)
VHH: QVQLQQSGGGSVQAGGSLRLSCVGPQRTFSTYGMGWFRQAPGKEREFVAGINYKGDTTYYADSVKGRFTISRDNAKNTLYLQMDSLKPEDRAVYQCARKGGLGGDYRDAGQYRYWGQGTQVTVSS
B4: the “absorbance at 450 nm” value in test [7] came out at 0.062; in test [9], 1.19; in test [10] it was 0.062. Besides, the binding result in test [8] is “no binding (tested: A450 above 0.2 counts as binding)”. Besides, in test [11], the “concentration giving A450 of 0.59” value is over 1 µg/mL. In test [12], the “minimal absorbance at 450 nm” value worked out at 0.576. Also, the entries for the “EC resulting in A450 0.2” value in [13] and in test [17] were over 1000 ng/mL and 11 ng/mL, respectively. Further, the “maximal absorbance at 450 nm” value in [13] worked out at 0.077; in test [14], 0.057; in test [15], 0.191; in test [16], 0.196; in test [17] it was 0.53. For the same molecule, the “EC resulting in A450 0.4” value in test [15] was over 1000 ng/mL. Besides, the “EC resulting in A450 0.15” value in test [16] turned out to be 36 ng/mL. Moreover, the “% inhibition of binding” value is 96% in [18]; 9% in test [19]; 2% in test [20]; 16% in [21]; 21% in test [22]; 6% in test [23]. Further, the “% inhibition of binding” value is 26% in test [24]; 3% in test [25]; -16% in test [26]; 8% in test [27]; 97% in test [28]; 19% in [29]. The “% inhibition of binding” value is 19% in test [30] and 12% in test [31].
